Experimental data as given in PMC117612 (Molecular Biology of the Cell, 2002).

Target: the molecule itself
Assay: SDS-PAGE under nonreducing and reducing conditions with Western blot

B1: murine TSP2 secreted by dermal fibroblasts (conditioned medium) (natural protein)
chain: not shown
stoichiometry N: 3
